In article doi:10.1101/2024.02.08.579498 (bioRxiv, 2024):

T1: TrwE/VirB10 (plasmid R388, UniProt O50337 1-395)
T1 sequence: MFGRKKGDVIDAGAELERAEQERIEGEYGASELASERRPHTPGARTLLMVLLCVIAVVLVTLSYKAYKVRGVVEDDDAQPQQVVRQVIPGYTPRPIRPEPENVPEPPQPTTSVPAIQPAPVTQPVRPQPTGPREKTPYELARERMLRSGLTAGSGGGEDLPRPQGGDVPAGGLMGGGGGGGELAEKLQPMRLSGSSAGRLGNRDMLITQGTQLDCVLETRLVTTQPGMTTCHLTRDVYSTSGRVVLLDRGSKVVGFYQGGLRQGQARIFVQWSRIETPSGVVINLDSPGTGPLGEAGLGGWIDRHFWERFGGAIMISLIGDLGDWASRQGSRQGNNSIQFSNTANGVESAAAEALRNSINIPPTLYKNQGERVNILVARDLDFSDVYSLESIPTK

B1: TrwI/VirB6 (natural protein, plasmid R388)
chain: MAFELFTPLFNKIDQTTATYVTDISSRAIAAITPVVSVGLTLGFITYGWLIIRGAVEMPVAEFLNRCLRIGIIVSIALAGGLYQGEIANAITTVPDELASALLGNPTEGASAAALVDQSAQQGFDRASEAFEEAGFFSSDGLLYGLFGIIIPAGYGPAGAIGGAFLLLAKIALALLAGLGPLFILALIWQPTHRFFDQWAQQVLNYGLLIVLFAAVFGLLMQIFGSYMADLRFDGAQNVAYAIGGSVILSIVSIVLLMQLPSIASGLAGGIGLGYMWELRSMRSGAGAAMRGGRAMARGARAAPGAARGAAVGAANMAKTVATGGAGVARAAAGYFRGRKAG

Tests used:
Test in all cases: cryo-EM structure
TrwE/VirB10 = target: T1, TrwE/VirB10
cryo-EM structure = target: the molecule itself
TrwI/VirB6 = target: B1

Binder	binding result (TrwE/VirB10)	stoichiometry N (cryo-EM structure)	binding result (TrwI/VirB6)
TrwG/VirB8 (natural protein, plasmid R388) MSKKQPKPVKAEQLKSYYEESRGLERDLIGEFVKSRKTAWRVATASGLFGLLGMVCGIVGFSQPAPAPLVLRVDNATGAVDVVTTLREHESSYGEVVDTYWLNQYVLNREAYDYNTIQMNYDTTALLSAPAVQQDYYKLFDGSNARDRVLGNKARITVRVRSIQPNGRGQATVRFTTQQHNSNGTVERPQHQIATIGYTYIGAPMRSSDRLLNPLGFQVTSYRADPEILNN	binds	24	–
TrwF/VirB9 (natural protein, plasmid R388) LDVPSSSRYDHRIRYVTYNPADVVQVDTVLGVATHIMLEEGEQYLTHAFGIPKPMPLPGRAGIFLSSRTAELANTNLIVVTDRRSYKFRLQMRNDRNGAMYELAFRYPDTQARQTREANARAAVEAAFEQRVGAYYNLKYMMSGDKDIAPVNAWDDGRFTYFKFSANADLPSIYFVDAEGNESLVPRTTVGSSNNIIAVHKVNPKWMIRLGNRALAIFNEAYDPNGVPNDTGTASPAVRRVNKGGN	binds	–	–
TrwJ/VirB5 (natural protein, plasmid R388, UniProt O50331 23-226, looked up) QGIPVFDGTRALDFVQQFARMKEQLDTAKDQLAEAQRMYEAVTGGRGLGDLMRNAQLREYLPDDLRTVYDSANGGGYSGISGSINDILRDERLNGSVADMRRSIEERSRTARTTDKAVGCGPTKGHSNASRRLKDEISRTQDQKAIEELQARIAGEQAAIQNETTKLQMIAQLRQAEQALISEQRRERNMPILSSGNQGMPTIQ	–	–	binds
B1	binds	–	–
